Laboratory results taken from EP4471048A1, “PEPTIDE INHIBITORS OF INTERLEUKIN-23 RECEPTOR” (Zealand Pharma A/S, priority 2023, dated 2024).
*1 amine or outer side, *2 acyl side, *3 side chain or, on linkers, in order; H or OH if unused. Bridges are numbered along the chain shown (N, C = ends). Where no end group is shown, it is not given here. [ ]: non-standard residue; d: D form. 4‑Aminomethyl‑phenylacetyl = 4-aminomethyl-phenylacetyl unit, its amine closes the lactam, O=C(Cc1ccc(CN[*:1])cc1)[*:2]; (N3)‑K = lysine with the alpha-amine converted to an azide, [N-]=[N+]=N[C@@H](CCCCN[*:3])C(=O)[*:2]; Trp(1-Me) = Cn1cc(C[C@H](N)C(=O)O)c2ccccc21; 2Nal = N[C@@H](Cc1ccc2ccccc2c1)C(=O)O; AEF = NCCOc1ccc(C[C@H](N)C(=O)O)cc1; 3Pal = N[C@@H](Cc1cccnc1)C(=O)O; αMeL = CC(C)C[C@](C)(N)C(=O)O; CH2COCH2 = O=C(C[*:1])C[*:2]; NMeK = CN[C@@H](CCCCN)C(=O)O; β3hK = NCCCC[C@H](N)CC(=O)O; dOrn = NCCC[C@@H](N)C(=O)O; NMeS = CN[C@@H](CO)C(=O)O; dDab = NCC[C@@H](N)C(=O)O; Orn = NCCC[C@H](N)C(=O)O; Pra = C#CC[C@H](N)C(=O)O; Dab = NCC[C@H](N)C(=O)O; βAla = NCCC(=O)O

T1: Nluc-IL23R fusion protein (human, UniProt Q5VWK5 22-629)
T1 construct: range 22-629; Stably expressed in HEK293 cells; also called hIL-23R; human IL-23R; not shown: Nanoluc protein (N1371, Promega) at the N-terminus, after a secretion signal
T1 sequence (looked up): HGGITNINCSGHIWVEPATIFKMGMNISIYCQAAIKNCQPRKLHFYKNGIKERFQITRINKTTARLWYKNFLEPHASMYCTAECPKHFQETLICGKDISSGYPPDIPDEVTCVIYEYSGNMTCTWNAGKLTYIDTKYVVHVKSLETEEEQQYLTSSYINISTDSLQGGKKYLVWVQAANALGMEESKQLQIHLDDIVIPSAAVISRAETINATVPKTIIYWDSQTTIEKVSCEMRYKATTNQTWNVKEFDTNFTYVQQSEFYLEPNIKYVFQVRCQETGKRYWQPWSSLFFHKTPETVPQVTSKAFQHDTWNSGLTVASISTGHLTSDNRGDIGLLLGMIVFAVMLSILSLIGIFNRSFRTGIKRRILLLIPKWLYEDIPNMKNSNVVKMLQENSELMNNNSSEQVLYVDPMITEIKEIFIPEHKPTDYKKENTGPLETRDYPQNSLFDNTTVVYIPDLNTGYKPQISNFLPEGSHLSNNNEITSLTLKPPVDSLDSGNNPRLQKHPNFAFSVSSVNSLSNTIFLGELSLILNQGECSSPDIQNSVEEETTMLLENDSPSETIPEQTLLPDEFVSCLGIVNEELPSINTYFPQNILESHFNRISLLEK

T2: human IL-23R endogenously expressed on DB cells (human, UniProt Q5VWK5 24-629)
T2 sequence (looked up): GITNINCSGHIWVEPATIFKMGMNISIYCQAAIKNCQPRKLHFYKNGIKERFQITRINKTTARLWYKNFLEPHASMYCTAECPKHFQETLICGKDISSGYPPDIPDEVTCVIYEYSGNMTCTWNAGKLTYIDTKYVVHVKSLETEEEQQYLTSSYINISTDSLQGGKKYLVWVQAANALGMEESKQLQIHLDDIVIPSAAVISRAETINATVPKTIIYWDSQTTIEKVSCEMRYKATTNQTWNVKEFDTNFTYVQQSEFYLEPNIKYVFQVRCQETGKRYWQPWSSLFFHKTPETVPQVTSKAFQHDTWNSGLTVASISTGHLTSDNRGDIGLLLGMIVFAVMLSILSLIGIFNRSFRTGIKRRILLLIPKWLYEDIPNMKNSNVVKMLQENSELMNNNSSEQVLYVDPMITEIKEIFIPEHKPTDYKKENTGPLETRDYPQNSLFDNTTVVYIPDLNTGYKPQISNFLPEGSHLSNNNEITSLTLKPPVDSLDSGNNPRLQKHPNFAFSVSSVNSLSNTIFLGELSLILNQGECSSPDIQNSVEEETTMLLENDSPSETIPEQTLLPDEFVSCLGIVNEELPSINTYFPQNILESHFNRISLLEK

B1: Compound 110 (peptide)
peptide: K[βAla]WQEW[2Nal][αMeL]E[Dab][3Pal]-NHMe
modifications: lactam 1-9, N-5
SMILES: CNC(=O)[C@H](Cc1cccnc1)NC(=O)[C@H](CCN)NC(=O)[C@@H]1CCC(=O)NCCCC[C@@H]2NC(=O)CC[C@H](NC(=O)[C@H](CCC(N)=O)NC(=O)[C@H](Cc3c[nH]c4ccccc34)NC(=O)CCNC2=O)C(=O)N[C@@H](Cc2c[nH]c3ccccc23)C(=O)N[C@@H](Cc2ccc3ccccc3c2)C(=O)N[C@@](C)(CC(C)C)C(=O)N1
B2: Compound 10 (peptide)
peptide: [dOrn]TVWQD[AEF][2Nal][αMeL]E[Dab][3Pal]-NH2
modifications: lactam 1-10, N-6
SMILES: CC(C)C[C@]1(C)NC(=O)[C@H](Cc2ccc3ccccc3c2)NC(=O)[C@H](Cc2ccc(OCCN)cc2)NC(=O)[C@@H]2CC(=O)N[C@H](CCCNC(=O)CC[C@@H](C(=O)N[C@@H](CCN)C(=O)N[C@@H](Cc3cccnc3)C(N)=O)NC1=O)C(=O)N[C@@H]([C@@H](C)O)C(=O)N[C@@H](C(C)C)C(=O)N[C@@H](Cc1c[nH]c3ccccc13)C(=O)N[C@@H](CCC(N)=O)C(=O)N2
B3: Compound 80 (peptide)
peptide: [NMeK][βAla]WQE[AEF][2Nal][αMeL]E[Dab][3Pal]-NHMe
modifications: lactam 1-9, 1-5; not fully specified; printed as [N-Me-Lys](1c)(6c)^†[3-Aminopropanoyl]WQE(6c)[Y(2-aminoethoxy)][2-Nal][2-Me-Leu]E(1c)[Dab][3-(3-Pyridyl)-Ala]-[NHMe], (1c) [2,11] lactam, (6c) [2,7] lactam, ^† alpha-amine in bridge; also: alpha-amine of residue 1 in bridge, which of the two lactams not given here
B4: Compound 63 (peptide)
peptide: KIVWQE[AEF][2Nal][αMeL]EP[3Pal]-NHMe
modifications: lactam 1-10; lactam (positions not given here); not fully specified (bridges); printed as K(1c)(6c)^{†}IVWQE(6c)[Y(2-aminoethoxy)][2-Nal][2-Me-Leu]E(1c)P[3-(3-Pyridyl)-Ala]-[NHMe]
B5: Compound 102 (peptide)
peptide: [iso‑Lys]WQE[AEF][2Nal][αMeL]E[Dab][3Pal]-NHMe
modifications: lactam (positions not given here); not fully specified (bridges); printed as [iso-Lys](1c)^†(6c)WQE(6c)[Y(2-aminoethoxy)][2-Nal][2-Me-Leu]E(1c)[Dab][3-(3-Pyridyl)-Ala]-[NHMe], (1c) [2,11] lactam, (6c) [2,7] lactam, ^† alpha-amine in bridge
B6: Compound 41 (peptide)
peptide: [(N3)‑K]TWQ[Pra][AEF][2Nal][αMeL]E[Dab][3Pal]-NHMe
modifications: lactam 1-9; triazole (positions not given here); not fully specified (bridges); printed as [(N₃)-K](1c)(6g)^{†}TWQ[Pra](6g)[Y(2-aminoethoxy)][2-Nal][2-Me-Leu]E(1c)[Dab][3-(3-Pyridyl)-Ala]-[NHMe]
B7: Compound 76 (peptide)
peptide: KTVWQE[AEF][2Nal][Dab]E[Dab][3Pal]
modifications: lactam 1-10, 9-C; lactam (positions not given here); not fully specified (bridges); printed as K(1c)(6c)^{†}TVWQE(6c)[Y(2-aminoethoxy)][2-Nal][Dab](7c)E(1c)[Dab][3-(3-Pyridyl)-Ala](7c)^{‡}
B8: Compound 11 (peptide)
peptide: [dDab]TVWQD[AEF][2Nal][αMeL]E[Dab][3Pal]-NH2
modifications: lactam 1-10, N-6
SMILES: CC(C)C[C@]1(C)NC(=O)[C@H](Cc2ccc3ccccc3c2)NC(=O)[C@H](Cc2ccc(OCCN)cc2)NC(=O)[C@@H]2CC(=O)N[C@H](CCNC(=O)CC[C@@H](C(=O)N[C@@H](CCN)C(=O)N[C@@H](Cc3cccnc3)C(N)=O)NC1=O)C(=O)N[C@@H]([C@@H](C)O)C(=O)N[C@@H](C(C)C)C(=O)N[C@@H](Cc1c[nH]c3ccccc13)C(=O)N[C@@H](CCC(N)=O)C(=O)N2
B9: Compound 91 (peptide)
peptide: [Orn][βAla]WQE[AEF][2Nal][αMeL]E[Dab][3Pal]-NHMe
modifications: lactam 1-9, 1-5; not fully specified; printed as [Orn](1c)(6c)^†[3-Aminopropanoyl]WQE(6c)[Y(2-aminoethoxy)][2-Nal][2-Me-Leu]E(1c)[Dab][3-(3-Pyridyl)-Ala]-[NHMe], (1c) [2,11] lactam, (6c) [2,7] lactam, ^† alpha-amine in bridge; also: alpha-amine of residue 1 in bridge, which of the two lactams not given here
B10: Compound 79 (peptide)
peptide: K[βAla][Trp(1-Me)]QE[AEF][2Nal][αMeL]E[Dab][3Pal]-NHMe
modifications: lactam 1-9, 1-5; not fully specified; printed as K(1c)(6c)^†[3-Aminopropanoyl][1-Me-Trp]QE(6c)[Y(2-aminoethoxy)][2-Nal][2-Me-Leu]E(1c)[Dab][3-(3-Pyridyl)-Ala]-[NHMe], (1c) [2,11] lactam, (6c) [2,7] lactam, ^† alpha-amine in bridge; also: alpha-amine of residue 1 in bridge, which of the two lactams not given here
B11: Compound 99 (peptide)
peptide: [β3hK]GWQE[AEF][2Nal][αMeL]E[Dab][3Pal]-NHMe
modifications: lactam 1-9; lactam (positions not given here); not fully specified (bridges); also: beta-amine of residue 1 is in one of the two lactams

Target: T1, Nluc-IL23R fusion protein
Assay: BRET competition vs TAMRA-labelled peptide, Nluc-IL23R membranes; note: test concentration or dose not given here

% displacement [%] | Binder
99 | [iso‑Glu]WQE[AEF][2Nal][αMeL]K[Dab][3Pal]-NHMe (lactam 1-8, N-4; also: iso-Glu: alpha-carboxylic acid in bridge) [Compound 106]
100 | B1
107 | B2
102 | B3
102 | [4‑Aminomethyl‑phenylacetyl][NMeS]CWQC[AEF][2Nal][αMeL]E[Dab]-NH2 (lactam N-10; linker 3-6 via CH2COCH2) [Ref 141]
98 | B4
97 | B5
98 | B6
92 | B7
104 | B8
100 | B9
100 | B10

Target: T2, human IL-23R endogenously expressed on …
Assay: cell-based or functional assay

hIL-23 (pSTAT3) antagonist % inhibition [%] | hIL-23 (pSTAT3) antagonist IC50 | Binder
95 | 21 nM | [4‑Aminomethyl‑phenylacetyl]SCWQC[AEF][2Nal][αMeL]ES-NH2 (lactam (positions not given here); bridge 3-6; not fully specified (bridges)) [Ref 81]
 | 21 nM | [4‑Aminomethyl‑phenylacetyl]SEWQ[Dab][AEF][2Nal][αMeL]E[Dab]-NH2 (lactam (positions not given here); bridge 3-6; not fully specified (bridges)) [Ref 125]
100 | 14 pM | B11
